Experimental data reported in patent US20190376122, “SINGLE-STRAND BINDING PROTEIN” (Universitetet I Tromsø - Norges Arktiske Universitet, published 2019).
Where a chain is given by its changes, count along the chain named.

Legend:
[1] = target: T1, wild-type Salinibacter ruber SSB (SrSSB) (Salinibacter ruber DSM 13855); assay: beacon dehybridization fluorescence, 4 uM protein; binding maintained with NaCl to 1 M, KCl to 1 M, MgCl2 to 250 mM; 25 C; conditions: chain copies: octamer/dodecamer mixture at 0.15 M NaCl; mostly octamer at 2 M NaCl (stated); label: dT-DABCYL and dT-FAM internal; partial hairpin with short 8 bp stem and 24 nt single-stranded loop
T1 chain: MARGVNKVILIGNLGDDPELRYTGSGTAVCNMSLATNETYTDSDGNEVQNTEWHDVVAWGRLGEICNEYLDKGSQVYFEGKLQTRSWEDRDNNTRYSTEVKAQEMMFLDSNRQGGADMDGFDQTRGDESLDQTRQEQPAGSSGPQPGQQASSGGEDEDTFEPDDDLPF
Procedure: (§1) Wild-type S.ruber SSB and the D17K D71K mutant were tested for their ability to bind ssDNA in reaction buffer supplemented with NaCl, KCl, MgCl₂ and CaCl₂. E. coli SSB was used as a well characterized, reference protein.
(§2) Reactions contained 0.125 μM of molecular beacon and 0.25 μM of E. coli SSB tetramer (single binding unit), 4 μM of wt SrSSB and 2 μM of D17K D71K. Reaction mixtures were set up in triplicates in 50 μl of reaction buffer MB (10 mM Tris-HCl pH 7, 10 mM NaCl) containing the fluorescent probe and supplemented with an indicated concentration of NaCl, KCl or MgCl₂ in 96-well plate (Corning). The binding reaction was initiated by addition of the indicated SSB protein, next reactions were incubated at 25° C. for 15′ and the fluorescence was measured with excitation at 495 nm and emission at 520 nm on the Gemini plate reader (Molecular Devices). All graphs were normalized to 100% of initial response, measured in fluorescence units.

E. coli SSB = E. coli SSB (Escherichia coli, UniProt P0AGE0 P0AGE0:2-178); assay: beacon fluorescence, 0.25 uM tetramer; binding decreases significantly with increasing concentration of all tested salts; 25 C; conditions: chain copies: tetramer (stated); label: dT-DABCYL and dT-FAM internal; partial hairpin with short 8 bp stem and 24 nt single-stranded loop
Procedure: as §1, §2

SrSSB D17K D71K mutant [2] = target: T2, SrSSB D17K D71K mutant (Salinibacter ruber); assay: beacon dehybridization fluorescence, 2 uM protein; level similar to wt at half the concentration; maintained in high NaCl, KCl, MgCl2; 25 C; conditions: chain copies: octamer (stated); label: dT-DABCYL and dT-FAM internal; partial hairpin with short 8 bp stem and 24 nt single-stranded loop
T2 chain: T1 chain with D17K, D71K
Procedure: as §1, §2

[3] = target: T1, wild-type Salinibacter ruber SSB (SrSSB); assay: structure; PDB 5ODN; d(T)8 soaked; one ssDNA fragment per OB-fold; 0.25 M MgCl2, 1 M ammonium sulphate, pH 8.0; conditions: chain copies: octamer/dodecamer mixture at 0.15 M NaCl; mostly octamer at 2 M NaCl (stated)
Procedure: Small, prism-shaped crystals of wild-type S. ruber SSB were obtained in sitting drops consisting of 1 μl of protein solution (5 mg/ml) containing 20 μM of d(T)₇₅ oligonucleotide and 1 μl of reservoir solution (27% w/v PEG 3350, 100 mM Tris-HCl pH 8.0, 0.25M MgCl₂, 1 M ammonium sulphate). Soaking experiments were performed by adding d(T)₈ oligonucleotide to the drops containing formed crystals, to a final concentration of 0.25 μM.

[4] = target: T1, wild-type Salinibacter ruber SSB (SrSSB); assay: SPR; 10 mM Tris-HCl pH 7, 10 mM NaCl; Chi2 0.529; conditions: chain copies: octamer/dodecamer mixture at 0.15 M NaCl; mostly octamer at 2 M NaCl (stated); label: 5'-biotin
From the text: (§3) Higher binding affinity of the D17K D71K mutant was also confirmed by probing the protein-ssDNA interaction strength directly with the use of Surface Plasmon Resonance on a T200 instrument (BIACORE). This biosensor-based technique enables real-time measurement of binding parameters that enables calculation of equilibrium dissociation constant (KD) of different complexes, including nucleoprotein complexes. To ensure that the measurement is not biased by nucleotide sequence, a randomly generated, 150 nucleotide, 5′-biotynylated ssDNA oligonucleotide was used (Table 2, SEQ ID NO:11). Oligonucleotides were attached to the surface of the SA S-type chip (BIACORE) via biotin-streptavidin interaction. Next, both proteins were run in dilutions: 10 nM, 20 nM, 40 nM, 100 nM, 150 nM, 200 nM, 300 nM over the chip surface in MB buffer (10 mM Tris-HCl pH 7, 10 mM NaCl). The binding event was detected by mass change on the chip surface, which enabled real time measurements of the kinetic parameters of protein-ssDNA interaction.

SrSSB D17K D71K mutant [5] = target: T2, SrSSB D17K D71K mutant; assay: SPR; 10 mM Tris-HCl pH 7, 10 mM NaCl; Chi2 0.624; conditions: chain copies: octamer (stated); label: 5'-biotin
From the text: as §3

Chain of E. coli SSB (P0AGE0 2-178, one chain of several): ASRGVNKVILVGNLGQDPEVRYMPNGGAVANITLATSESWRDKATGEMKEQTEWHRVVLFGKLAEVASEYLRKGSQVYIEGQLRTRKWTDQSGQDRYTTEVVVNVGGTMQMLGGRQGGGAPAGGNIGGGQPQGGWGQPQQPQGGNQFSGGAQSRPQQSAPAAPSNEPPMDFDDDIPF

B1: MB molecular beacon (ssDNA)
DNA: GGCCCGTAGGAGGAAAGGACATCTTCTAGCATACGGGCCGTCAAGTTCATGGCCAGTCAAGTCGTCAGAAATTTCGCACCAC
- binding result [1]: binds
- binding result (E. coli SSB): binds
- binding result (SrSSB D17K D71K mutant [2]): binds

Binder: TTTTTTTT (ssDNA) [d(T)8]
- binding result [3]: binds

B2: SPR 150nt oligonucleotide (ssDNA)
DNA: AAAGGGTATTGACGGACCAGATGTAGCGTGGCAGAAAAGGGTATTGACGGACCAGATGTAGCGTGGCAGAGACTGAAAGGGTATTGACGGACCAGATGTAGCGTGGCAGAAAAGGGTATTGACGGACCAGATGTAGCGTGGCAGAGACTG
- Kd [4]: 0.0343 µM
- Kd (SrSSB D17K D71K mutant [5]): 0.0191 µM
